In article PMC5974088, “Structural basis for recognition of 53BP1 tandem Tudor domain by TIRR” (Nature Communications, 2018):

B1: mouse TIRR (6-211) (domain or fragment, M. musculus)
chain: GHMVPELKQISREEAMRLGPGWSHSCHAMLYAANPGQLFGRIPMRFSVLMQMRFDGLLGFPGGFVDRRFWSLEDGLNRVLGLGLGGLRLTEADYLSSHLTEGPHRVVAHLYARQLTLEQLHAVEISAVHSRDHGLEVLGLVRVPLYTQKDRVGGFPNFLSNAFVSTAKYQLLFALKVLNMMPSEKLAEALASATEKQKKALEKLLPPSS
notes: overhang left after TEV cleavage, printed as Gly-His-Met; TIRR (Nudt16L1), M. musculus, residues 6-211; Homodimer by ultracentrifugation and in the crystal; also called Nudt16L1; source: E. coli BL21-Codon PLUS(DE3)-RIPL, purified (Ni-NTA, TEV, heparin, Superdex200); not shown: His6, N-terminal, cleaved

Experiments:
[1] = biological target: the molecule itself; assay: AUC; TIRR alone; 20 mM Tris-HCl pH 7.5, 150 mM NaCl; dimer
[2] = biological target: B1; assay: ITC; 200-400 μM 53BP1 Tudor domain (wt or mutant) injected into 200 μl of 22-44 μM TIRR or Nudt16 (wt or mutant); 25 °C; 20 mM Tris-HCl pH 7.5, 150 mM NaCl; single-site binding model; settings: both partners purified
[3] = biological target: B1; assay: AUC; sedimentation velocity, 20 °C; TIRR and 53BP1 Tudor assembled in equal molar ratio; 20 mM Tris-HCl pH 7.5, 150 mM NaCl; settings: both partners purified
[4] = biological target: B1; assay: AUC; sedimentation velocity (20 °C) and sedimentation equilibrium (16 °C); TIRR and 53BP1 Tudor premixed at 2:1 ratio; 20 mM Tris-HCl pH 7.5, 150 mM NaCl; settings: both partners purified
[5] = biological target: T1, human TIRR (6-211) (H. sapiens, UniProt Q9BRJ7 6-211); assay: ITC; 200-400 μM 53BP1 Tudor domain (wt or mutant) injected into 200 μl of 22-44 μM TIRR or Nudt16 (wt or mutant); 25 °C; 20 mM Tris-HCl pH 7.5, 150 mM NaCl; single-site binding model; settings: both partners purified
T1 construct: overhang left after TEV cleavage, printed as Gly-His-Met; TIRR (Nudt16L1), H. sapiens, residues 6-211; also called Nudt16L1; source: E. coli BL21-Codon PLUS(DE3)-RIPL, purified (Ni-NTA, TEV, heparin, Superdex200); not shown: His6, N-terminal, cleaved
T1 sequence (Q9BRJ7 other isoform, or with tags, fused parts or gaps): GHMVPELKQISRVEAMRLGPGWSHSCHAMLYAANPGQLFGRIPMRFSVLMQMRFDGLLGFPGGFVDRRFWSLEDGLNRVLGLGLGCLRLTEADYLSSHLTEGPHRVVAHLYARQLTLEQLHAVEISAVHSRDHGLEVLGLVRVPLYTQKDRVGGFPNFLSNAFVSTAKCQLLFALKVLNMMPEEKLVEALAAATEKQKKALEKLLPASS

[6] = biological target: B1; assay: as above; settings: both partners purified; remark: listed apart in the source
[7] = biological target: B1; assay: as above; settings: both partners purified; remark: listed apart in the source

Kd [7]	Binder	other results
–	B1	stoichiometry N [1]: 2
–	53BP1 Tudor-UDR domain (1484-1631) (domain or fragment, H. sapiens, overhang left after TEV cleavage, printed as Gly-His-Met; 53BP1 Tudor-UDR domain, H. sapiens, residues 1484-1631; source: E. coli BL21-Codon PLUS(DE3)-RIPL, purified (Ni-NTA, TEV, Superdex200); not shown: His6, N-terminal, cleaved) GHMNSFVGLRVVAKWSSNGYFYSGKITRDVGAGKYKLLFDDGYECDVLGKDILLCDPIPLDTEVTALSEDEYFSAGVVKGHRKESGELYYSIEKEGQRKWYKRMAVILSLEQGNRLREQYGLGPYEAVTPLTKAADISLDNLVEGKRKRRS	Kd [2]: 0.9 µM
–	53BP1 tandem Tudor domain (1484-1603) (domain or fragment, H. sapiens, overhang left after TEV cleavage, printed as Gly-His-Met; 53BP1 tandem Tudor domain, H. sapiens, residues 1484-1603; also called 53BP1 Tudor; 53BP1-Tudor WT; source: E. coli BL21-Codon PLUS(DE3)-RIPL, purified (Ni-NTA, TEV, Superdex200); not shown: His6, N-terminal, cleaved) GHMNSFVGLRVVAKWSSNGYFYSGKITRDVGAGKYKLLFDDGYECDVLGKDILLCDPIPLDTEVTALSEDEYFSAGVVKGHRKESGELYYSIEKEGQRKWYKRMAVILSLEQGNRLREQYGLG	stoichiometry N [3]: 1 53BP1 Tudor per TIRR (printed as 2:2); stoichiometry N [4]: 0.5 53BP1 Tudor per TIRR (printed as TIRR/53BP1 Tudor 2:1); stoichiometry N [2]: 1; Kd [5]: 0.9 µM; Kd [6]: 0.9 µM
4.7 µM	53BP1 Tudor L1547A (domain or fragment, H. sapiens, overhang left after TEV cleavage, printed as Gly-His-Met; 53BP1 tandem Tudor domain, H. sapiens, residues 1484-1603; source: E. coli BL21-Codon PLUS(DE3)-RIPL, purified as the wt protein; not shown: His6, N-terminal, cleaved) GHMNSFVGLRVVAKWSSNGYFYSGKITRDVGAGKYKLLFDDGYECDVLGKDILLCDPIPLDTEVTAASEDEYFSAGVVKGHRKESGELYYSIEKEGQRKWYKRMAVILSLEQGNRLREQYGLG	–
28.5 µM	53BP1 Tudor Y1523A (domain or fragment, H. sapiens, overhang left after TEV cleavage, printed as Gly-His-Met; 53BP1 tandem Tudor domain, H. sapiens, residues 1484-1603; source: E. coli BL21-Codon PLUS(DE3)-RIPL, purified as the wt protein; not shown: His6, N-terminal, cleaved) GHMNSFVGLRVVAKWSSNGYFYSGKITRDVGAGKYKLLFDDGAECDVLGKDILLCDPIPLDTEVTALSEDEYFSAGVVKGHRKESGELYYSIEKEGQRKWYKRMAVILSLEQGNRLREQYGLG	–
5.4 µM	53BP1 Tudor D1521A (domain or fragment, H. sapiens, overhang left after TEV cleavage, printed as Gly-His-Met; 53BP1 tandem Tudor domain, H. sapiens, residues 1484-1603; source: E. coli BL21-Codon PLUS(DE3)-RIPL, purified as the wt protein; not shown: His6, N-terminal, cleaved) GHMNSFVGLRVVAKWSSNGYFYSGKITRDVGAGKYKLLFDAGYECDVLGKDILLCDPIPLDTEVTALSEDEYFSAGVVKGHRKESGELYYSIEKEGQRKWYKRMAVILSLEQGNRLREQYGLG	–
12.7 µM	53BP1 Tudor Y1500A (domain or fragment, H. sapiens, overhang left after TEV cleavage, printed as Gly-His-Met; 53BP1 tandem Tudor domain, H. sapiens, residues 1484-1603; source: E. coli BL21-Codon PLUS(DE3)-RIPL, purified as the wt protein; not shown: His6, N-terminal, cleaved) GHMNSFVGLRVVAKWSSNGAFYSGKITRDVGAGKYKLLFDDGYECDVLGKDILLCDPIPLDTEVTALSEDEYFSAGVVKGHRKESGELYYSIEKEGQRKWYKRMAVILSLEQGNRLREQYGLG	–
1.5 µM	53BP1 Tudor F1553A (domain or fragment, H. sapiens, overhang left after TEV cleavage, printed as Gly-His-Met; 53BP1 tandem Tudor domain, H. sapiens, residues 1484-1603; source: E. coli BL21-Codon PLUS(DE3)-RIPL, purified as the wt protein; not shown: His6, N-terminal, cleaved) GHMNSFVGLRVVAKWSSNGYFYSGKITRDVGAGKYKLLFDDGYECDVLGKDILLCDPIPLDTEVTALSEDEYASAGVVKGHRKESGELYYSIEKEGQRKWYKRMAVILSLEQGNRLREQYGLG	–
15.4 µM	53BP1 Tudor W1495A (domain or fragment, H. sapiens, overhang left after TEV cleavage, printed as Gly-His-Met; 53BP1 tandem Tudor domain, H. sapiens, residues 1484-1603; source: E. coli BL21-Codon PLUS(DE3)-RIPL, purified as the wt protein; not shown: His6, N-terminal, cleaved) GHMNSFVGLRVVAKASSNGYFYSGKITRDVGAGKYKLLFDDGYECDVLGKDILLCDPIPLDTEVTALSEDEYFSAGVVKGHRKESGELYYSIEKEGQRKWYKRMAVILSLEQGNRLREQYGLG	–
17.3 µM	53BP1 Tudor L1547G (domain or fragment, H. sapiens, overhang left after TEV cleavage, printed as Gly-His-Met; 53BP1 tandem Tudor domain, H. sapiens, residues 1484-1603; source: E. coli BL21-Codon PLUS(DE3)-RIPL, purified as the wt protein; not shown: His6, N-terminal, cleaved) GHMNSFVGLRVVAKWSSNGYFYSGKITRDVGAGKYKLLFDDGYECDVLGKDILLCDPIPLDTEVTAGSEDEYFSAGVVKGHRKESGELYYSIEKEGQRKWYKRMAVILSLEQGNRLREQYGLG	–
